According to PMC12272874, “The common homocystinuria-associated P1173L variant of human methionine synthase impairs reductive methylation” (The Journal of Biological Chemistry, 2025):

Legend:
[1] = biological target: T1, Human methionine synthase (MTR), wild-type, full-length recombinant (human, UniProt Q99707 1-1265); test: native gel or EMSA; 15 μM cob(II)alamin-bound wild-type or P1173L MTR mixed with equimolar MTRR in Buffer C (100 mM HEPES, pH 7.4, 150 mM KCl, 10% glycerol), room temperature 5 min; 4–15% gradient gel, 4 °C; conditions: both partners purified
T1 construct: Methionine synthase (MTR), human, full length, 140.5 kDa; codon-optimised synthetic gene in pET-28 between BamH1 and Xho1, thrombin cleavage site at the N-terminus; Monomer fraction of the size exclusion column was used; Loaded with cob(II)alamin (native gel, stopped-flow, EPR) or MeCbl (native gel with substrates); also called wild-type MTR; WT; source: E. coli BL21 (DE3), co-expressed with …

[2] = biological target: T2, P1173L variant of human methionine synthase (MTR), full-length recombinant (human, UniProt Q99707 1-1265, P1173L); test: as above; conditions: both partners purified
T2 construct: Methionine synthase (MTR), human, full length, clinical missense variant P1173L made from the wild-type pET28-thrombin-MTR construct; Homocystinuria-associated variant that occurs in patients; Same expression and purification as the wild type; Loaded with cob(II)alamin or MeCbl; also called P1173L MTR; P→L; source: E. coli BL21 (DE3), co-expressed with GST-tagged ΔNMMADHC, purified (Ni-NTA, size …)
T2 sequence (Q99707 whole entry P1173L): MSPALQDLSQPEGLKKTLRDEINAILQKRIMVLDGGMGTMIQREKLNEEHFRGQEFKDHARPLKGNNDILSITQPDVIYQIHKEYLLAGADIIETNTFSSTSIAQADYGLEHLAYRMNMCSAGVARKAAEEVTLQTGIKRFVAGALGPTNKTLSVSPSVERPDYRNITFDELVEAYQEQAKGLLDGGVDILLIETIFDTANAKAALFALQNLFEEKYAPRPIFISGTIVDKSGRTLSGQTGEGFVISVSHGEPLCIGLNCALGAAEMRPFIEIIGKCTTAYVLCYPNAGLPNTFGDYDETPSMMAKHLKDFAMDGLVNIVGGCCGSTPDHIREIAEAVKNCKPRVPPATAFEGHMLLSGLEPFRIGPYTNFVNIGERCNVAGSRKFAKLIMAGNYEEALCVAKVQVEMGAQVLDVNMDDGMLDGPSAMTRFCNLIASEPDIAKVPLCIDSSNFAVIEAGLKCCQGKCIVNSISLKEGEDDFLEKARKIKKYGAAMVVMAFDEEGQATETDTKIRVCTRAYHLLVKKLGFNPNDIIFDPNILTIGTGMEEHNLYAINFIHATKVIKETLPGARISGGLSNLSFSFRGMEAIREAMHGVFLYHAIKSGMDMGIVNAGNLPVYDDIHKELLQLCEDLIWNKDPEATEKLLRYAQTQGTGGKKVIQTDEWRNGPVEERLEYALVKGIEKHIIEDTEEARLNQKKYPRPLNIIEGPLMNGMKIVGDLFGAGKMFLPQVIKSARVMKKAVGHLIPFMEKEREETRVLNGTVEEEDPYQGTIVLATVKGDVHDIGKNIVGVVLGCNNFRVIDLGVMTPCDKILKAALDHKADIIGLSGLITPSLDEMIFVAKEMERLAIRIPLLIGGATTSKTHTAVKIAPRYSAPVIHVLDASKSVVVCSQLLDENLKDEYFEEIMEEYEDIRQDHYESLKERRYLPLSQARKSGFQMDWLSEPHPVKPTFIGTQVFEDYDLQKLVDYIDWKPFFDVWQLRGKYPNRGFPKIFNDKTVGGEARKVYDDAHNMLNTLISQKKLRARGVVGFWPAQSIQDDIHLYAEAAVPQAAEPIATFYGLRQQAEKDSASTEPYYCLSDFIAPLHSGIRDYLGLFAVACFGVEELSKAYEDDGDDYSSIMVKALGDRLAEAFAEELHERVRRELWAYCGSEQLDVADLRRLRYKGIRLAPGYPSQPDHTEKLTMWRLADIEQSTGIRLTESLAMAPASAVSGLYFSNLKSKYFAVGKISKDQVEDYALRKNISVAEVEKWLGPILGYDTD

T1 sequence (Q99707 whole entry): as the sequence (Q99707 whole entry P1173L) above, with L1173P counted along it

B1: Human methionine synthase reductase (MTRR), full-length recombinant (enzyme, UniProt Q9UBK8-2 1-698, looked up)
chain: MRRFLLLYATQQGQAKAIAEEICEQAVVHGFSADLHCISESDKYDLKTETAPLVVVVSTTGTGDPPDTARKFVKEIQNQTLPVDFFAHLRYGLLGLGDSEYTYFCNGGKIIDKRLQELGARHFYDTGHADDCVGLELVVEPWIAGLWPALRKHFRSSRGQEEISGALPVASPASSRTDLVKSELLHIESQVELLRFDDSGRKDSEVLKQNAVNSNQSNVVIEDFESSLTRSVPPLSQASLNIPGLPPEYLQVHLQESLGQEESQVSVTSADPVFQVPISKAVQLTTNDAIKTTLLVELDISNTDFSYQPGDAFSVICPNSDSEVQSLLQRLQLEDKREHCVLLKIKADTKKKGATLPQHIPAGCSLQFIFTWCLEIRAIPKKAFLRALVDYTSDSAEKRRLQELCSKQGAADYSRFVRDACACLLDLLLAFPSCQPPLSLLLEHLPKLQPRPYSCASSSLFHPGKLHFVFNIVEFLSTATTEVLRKGVCTGWLALLVASVLQPNIHASHEDSGKALAPKISISPRTTNSFHLPDDPSIPIIMVGPGTGIAPFIGFLQHREKLQEQHPDGNFGAMWLFFGCRHKDRDYLFRKELRHFLKHGILTHLKVSFSRDAPVGEEEAPAKYVQDNIQLHGQQVARILLQENGHIYVCGDAKNMAKDVHDALVQIISKEVGVEKLEAMKTLATLKEEKRYLQDIWS
notes: Methionine synthase reductase (MTRR), human, full length; purified by the same protocol as ΔCMTRR; source: E. coli BL21(DE3), purified (Glutathione Sepharose 4B, thrombin cleavage, size exclusion chromatography); not shown: GST, N-terminal, cleaved
binding result [1]: binds | binding result [2]: binds
